Earlier results as cited in publication PMC7605336.
pKd: −log10 of the molar value.

Molecular target: Spike protein RBD (SARS-CoV-2) (UniProt P0DTC2)

With “SBP1 (ACE2 α1 helix-derived 23-mer peptide) α1 helix (from UniProt Q9BYF1)” as the substance, how does the pKd read?
The pKd was 7.33.
